Source: patent publication US20190292256A1, “Compounds and Methods to Measure Metabolic Function and Restore Normal Metabolic Function” (priority 2010, published 2019)

What was measured:
Assay type in all cases: cell-based, mouse
[1] = tested on: 3T3-L1 adipocytes; experiment: Sfrp5 and adiponectin transcript expression in 3T3-L1 adipocytes treated with stress agents (QRT-PCR); conditions: differentiated 3T3-L1 adipocytes, 24 h; TNFα 10 ng/ml, H2O2 0.2 mM, tunicamycin 5 μg/ml
Procedure: (§1) Mouse 3T3-L1 cells (ATCC) were maintained in DMEM with 10% fetal bovine serum (FBS) and differentiated into adipocytes by treatment with DMEM supplemented with 5 μg/ml of insulin, 0.5 mM 1-methyl-3-isobutyl-xanthin, and 1 μM dexamethazone. At day 7 after differentiation, 3T3-L1 adipocytes were treated with tunicamycin, H2O2, TNFα or vehicle for 24 h. Peritoneal macrophages from lean WT C57BL/6 mice were maintained in DMEM supplemented 10% FBS and placed in DMEM with 0.5% FBS for 16 h for serum starvation. Macrophages were incubated in the conditioned media from 3T3-L1 adipocytes transduced with adenoviral vectors in the presence of Wnt5a protein (200 ng/ml) or vehicle for 24 h. In some experiments, cells were pretreated with SP600125 (15 μM) or vehicle for 1 h followed by treatment with Wnt5a protein.
(§2) Epididymal fat pads from male wild-type C57BL/6 mice fed a normal diet were excised, minced in PBS and digested with 1 mg/ml collagenase Type 1 (Worthington Chemical Corporation) at 37° C. for 30 min. The digested fat tissue was filtered through a mesh and centrifuged at 1000 rpm for 5 min to separate floating adipocytes from the SV fraction. Measurement of mRNA Levels Gene expression level was quantified by real-time PCR. Total RNA was prepared with the use of a Qiagen kit. cDNA was produced using ThermoScript RT-PCR Systems (Invitrogen). PCR was performed on iCycler iQ Real-Time PCR Detection System (Bio-Rad) using SYBR Green 1 as a double standard DNA specific dye (Applied Biosystems).

[2] = tested on: phosphorylation of JNK in adipocytes; experiment: Wnt5a-stimulated JNK phosphorylation in 3T3-L1 adipocytes (immunoblot); conditions: Wnt5a 30 min
Procedure: as §1

[3] = tested on: TOPflash reporter activity (canonical Wnt signaling); experiment: TOPflash luciferase reporter assay in 3T3-L1 adipocytes; conditions: Wnt5a 200 ng/ml 24 h, AdTRE-Sfrp5 transduction
Procedure: 3T3-L1 adipocytes were transduced with adenoviral vectors for 24 h and co-transfected with a TOPflash (Upstate) construct and a Renilla luciferase control plasmid (pRL-SV40, Promega) to normalize for transfection efficiency. After transfection, cells were treated with Wnt5a protein (200 ng/ml) or vehicle. Cells were lysed and analyzed on a luminometer by using dual luciferase assay kit (Promega).

[4] = tested on: JNK phosphorylation in macrophages; experiment: Wnt5a-stimulated JNK phosphorylation in peritoneal macrophages (immunoblot); conditions: in conditioned media from Ad-β-gal-treated 3T3-L1 adipocytes, 30 min
Procedure: as §1, with “Macrophages were incubated in the conditioned media from 3T3-L1 adipocytes transduced with adenoviral vectors in the presence of Wnt5a protein (200 ng/ml) or vehicle for 24 h.” left out

[5] = tested on: TNFα and IL-6 transcript expression by macrophages; experiment: Wnt5a-stimulated TNFα and IL-6 transcript expression in peritoneal macrophages (QRT-PCR); conditions: Wnt5a 200 ng/ml, 24 h
Procedure: as §1
as §2, with “PCR was performed on iCycler iQ Real-Time PCR Detection System (Bio-Rad) using SYBR Green 1 as a double standard DNA specific dye (Applied Biosystems).” left out

[6] = tested on: IL-6 expression in adipocytes; experiment: Wnt5a-stimulated IL-6 expression in 3T3-L1 adipocytes (QRT-PCR); conditions: Wnt5a 200 ng/ml 24 h
Procedure: as §1
as §2, with “PCR was performed on iCycler iQ Real-Time PCR Detection System (Bio-Rad) using SYBR Green 1 as a double standard DNA specific dye (Applied Biosystems).” left out

Molecule | Sfrp5 transcript levels [1] | transcript level of adiponectin [1] | effect on TOPflash reporter activity [3] | also measured
OO [hydrogen peroxide] | significantly reduced | down-regulated |  | 
TNFα | significantly reduced | down-regulated |  | 
tunicamycin | significantly reduced | down-regulated |  | 
Wnt5a: recombinant mouse Wnt5a protein produced in CHO cells, purchased from R&D Systems (protein) IIGAQPLCSQLAGLSQGQKKLCHLYQDHMQYIGEGAKTGIKECQYQFRHRRWNCSTVDNTSVFGRVMQIGSRETAFTYAVSAAGVVNAMSRACREGELSTCGCSRAARPKDLPRDWLWGGCGDNIDYGYRFAKEFVDARERERIHAKGSYESARILMNLHNNEAGRRTVYNLADVACKCHGVSGSCSLKTCWLQLADFRKVGDALKEKYDSAAAMRLNSRGKLVQVNSRFNSPTTQDLVYIDPSPDYCVRNESTGSLGTQGRLCNKTSEGMDGCELMCCGRGYDQFKTVQTERCHCKFHWCCYVKCKKCTEIVDQFVCK |  |  | neither Sfrp5 nor Wnt5a had an effect | phosphorylation of JNK in adipocytes [2]: stimulatory effects; JNK phosphorylation in macrophages [4]: stimulated; IL-6 transcript expression by macrophages [5]: increased; TNFα transcript expression by macrophages [5]: increased; IL-6 expression in adipocytes [6]: stimulatory effects
Sfrp5: secreted frizzled-related protein 5, here overexpressed in adipocytes by AdTRE-Sfrp5 transduction (protein, UniProt Q9WU66 22-314, looked up) Secreted frizzled-related …: APTRGQEYDYYGWQAEPLHGRSYSKPPQCLDIPADLPLCHTVGYKRMRLPNLLEHESLAEVKQQASSWLPLLAKRCHSDTQVFLCSLFAPVCLDRPIYPCRSLCEAARAGCAPLMEAYGFPWPEMLHCHKFPLDNDLCIAVQFGHLPATAPPVTKICAQCEMEHSADGLMEQMCSSDFVVKMRIKEIKIDNGDRKLIGAQKKKKLLKAGPLKRKDTKKLVLHMKNGASCPCPQLDNLTGSFLVMGRKVEGQLLLTAVYRWDKKNKEMKFAVKFMFSYPCSLYYPFFYGAAEPH |  |  | neither Sfrp5 nor Wnt5a had an effect | 
